± gives the standard deviation of the averaged measurements.
Test: total protein half-life in vivo (active degradation + dilution); higher = more stable protein
[1] = E. coli NCM3722 delta-clpP delta-lon delta-hslV, growth: N-lim chemostat, doubling time 6 h
[2] = E. coli NCM3722 delta-clpP, growth: N-lim chemostat, doubling time 6 h
[3] = E. coli NCM3722 delta-hslV, growth: N-lim chemostat, doubling time 6 h
[4] = E. coli NCM3722 delta-lon, growth: N-lim chemostat, doubling time 6 h
[5] = E. coli NCM3722 delta-smpB, growth: N-lim chemostat, doubling time 6 h
[6] = wild type E. coli NCM3722, growth: C-lim chemostat, doubling time 3 h
[7] = wild type E. coli NCM3722, growth: C-lim chemostat, doubling time 6 h
[8] = wild type E. coli NCM3722, growth: C-lim chemostat, doubling time 12 h
[9] = wild type E. coli NCM3722, growth: N-lim chemostat, doubling time 6 h
[10] = wild type E. coli NCM3722, growth: N-lim chemostat, doubling time 12 h
[11] = wild type E. coli NCM3722, growth: P-lim chemostat, doubling time 6 h
[12] = wild type E. coli NCM3722, growth: P-lim chemostat, doubling time 12 h

Sequence | total protein half-life in vivo [1] [h] | total protein half-life in vivo [2] [h] | total protein half-life in vivo [3] [h] | total protein half-life in vivo [4] [h] | total protein half-life in vivo [5] [h] | total protein half-life in vivo [6] [h] | total protein half-life in vivo [7] [h] | total protein half-life in vivo [8] [h] | total protein half-life in vivo [9] [h] | total protein half-life in vivo [10] [h] | total protein half-life in vivo [11] [h] | total protein half-life in vivo [12] [h]
MNIQCKRVYDPAEQSDGYRILVDRLWPRGIKKTDLALDEWDKEITPSTELRKAFHGEVVDYATFREQYLAELAQHEQEGKRLADIAKKQPLTLLYSAKNTTQNHALVLADWLRSL | 6.74 ± 1.5 | 5.27 | 3.16 ± 0.34 | 4.88 ± 0.48 | 3.51 ± 0.47 | 2.37 ± 0.59 | 4.57 | 4.54 ± 0.79 | 3.27 | 4.71 | 3.11 | 5.24 ± 1.4
MNIRPLHDRVIVKRKEVETKSAGGIVLTGSAAAKSTRGEVLAVGNGRILENGEVKPLDVKVGDIVIFNDGYGVKSEKIDNEEVLIMSESDILAIVEA [P0A6F9] | 5.5416 ± 0.005 | 5.34 ± 0.43 | 5.26 ± 0.4 | 6.18 ± 0.9 | 5.092 ± 0.02 | 3.051 ± 0.0027 | 6.27 ± 0.87 | 10.6 ± 1.3 | 5.03 ± 0.15 | 8.21 ± 0.97 | 5.36 ± 0.23 | 12.5 ± 1.7
MNITATVLLAFGMSMDAFAASIGKGATLHKPKFSEALRTGLIFGAVETLTPLIGWGMGMLASRFVLEWNHWIAFVLLIFLGGRMIIEGFRGADDEDEEPRRRHGFWLLVTTAIATSLDAMAVGVGLAFLQVNIIATALAIGCATLIMSTLGMMVGRFIGSIIGKKAEILGGLVLIGIGVQILWTHFHG |  |  | 5.5 |  |  |  |  |  |  |  |  | 8.23
MNITPFPTLSPATIDAINVIGQWLAQDDFSGEVPYQADCVILAGNAVMPTIDAACKIARDQQIPLLISGGIGHSTTFLYSAIAQHPHYNTIRTTGRAEATILADIAHQFWHIPHEKIWIEDQSTNCGENARFSIALLNQAVERVHTAIVVQDPTMQRRTMATFRRMTGDNPDAPRWLSYPGFVPQLGNNADSVIFINQLQGLWPVERYLSLLTGELPRLRDDSDGYGPRGRDFIVHVDFPAEVIHAWQTLKHDAVLIEAMESRSLR | 5.66 ± 0.067 | 4.38 ± 0.065 | 3.92 ± 0.042 | 4.66 ± 0.2 | 3.96 ± 0.27 | > 4 | 5.74 ± 0.29 | 10.9 ± 1.3 | 4.35 ± 0.28 | 6.81 ± 1.1 | 6.023 ± 0.049 | 11.4 ± 0.21
